In article doi:10.1101/2025.08.04.668392 (bioRxiv, 2025):

Columns and labels:
[1] = molecular target: His-tagged Importin β (Impβ), H. sapiens, from pQE60-Impβ (human) (UniProt Q14974); experiment: ITC
[2] = molecular target: His-tagged Importin β (Impβ), H. sapiens, from pQE60-Impβ (human, UniProt Q14974 1-876); experiment: ITC
[3] = molecular target: Importin β (hsImpβ) of the purified trimeric complex Impβ:Imp7:H1.11L-chick (human, UniProt Q14974 1-876); experiment: cross-linking
Importin β (hsImpβ) of the purified trimeric complex Impβ:Imp7:H1.11L-chick, sequence (Q14974 whole entry, one chain of several): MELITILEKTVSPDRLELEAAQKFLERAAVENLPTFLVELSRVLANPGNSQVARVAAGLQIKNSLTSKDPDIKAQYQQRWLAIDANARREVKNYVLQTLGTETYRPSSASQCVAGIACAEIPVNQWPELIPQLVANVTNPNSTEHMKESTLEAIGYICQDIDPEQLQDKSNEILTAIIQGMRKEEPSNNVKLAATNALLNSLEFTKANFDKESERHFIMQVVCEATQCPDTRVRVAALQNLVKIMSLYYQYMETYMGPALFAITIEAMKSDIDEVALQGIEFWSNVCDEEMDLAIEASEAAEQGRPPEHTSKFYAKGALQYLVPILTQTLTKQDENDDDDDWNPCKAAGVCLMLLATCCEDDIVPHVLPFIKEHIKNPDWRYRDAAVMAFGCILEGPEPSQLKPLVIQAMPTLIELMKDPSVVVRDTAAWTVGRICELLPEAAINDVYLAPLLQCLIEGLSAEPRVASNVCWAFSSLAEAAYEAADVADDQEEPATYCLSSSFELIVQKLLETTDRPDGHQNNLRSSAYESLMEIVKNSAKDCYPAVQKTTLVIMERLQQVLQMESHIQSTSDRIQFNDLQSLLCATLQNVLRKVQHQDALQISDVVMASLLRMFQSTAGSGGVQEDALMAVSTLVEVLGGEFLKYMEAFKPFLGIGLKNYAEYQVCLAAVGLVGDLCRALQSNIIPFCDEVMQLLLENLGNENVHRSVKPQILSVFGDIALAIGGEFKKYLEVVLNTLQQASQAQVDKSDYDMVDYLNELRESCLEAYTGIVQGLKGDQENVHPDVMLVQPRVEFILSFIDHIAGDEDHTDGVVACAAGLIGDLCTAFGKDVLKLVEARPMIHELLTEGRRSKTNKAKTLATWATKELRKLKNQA

His-tagged Importin β (Impβ), H. sapiens, from pQE60-Impβ, sequence (Q14974 whole entry): as the sequence (Q14974 whole entry, one chain of several) above
His-tagged Importin β (Impβ), H. sapiens, from pQE60-Impβ (human), sequence (Q14974 whole entry): as the sequence (Q14974 whole entry, one chain of several) above

Molecule: GST-tagged Imp7 (1002-1038) fragment P1024G (domain or fragment)
- fold reduction of binding against the wild-type NlB region (1002-1038) [1]: 7 fold

Molecule: GST-tagged Imp7 (1002-1038) fragment V1023E (domain or fragment)
- fold reduction of affinity against the wild-type NlB region (1002-1038) [1]: 15 fold

Molecule: GST-tagged Imp7 (1002-1038) fragment V1023T (domain or fragment)
- fold reduction of affinity against the wild-type NlB region (1002-1038) [1]: 4 fold

Molecule: RRAAHESKMIEKHGGYKYNAPVVPSTFNFGNPAPGMN (domain or fragment, X. laevis, UniProt O42480 1002-1038, looked up) [GST-tagged Imp7 (1002-1038) fragment F1019Y]
- fold reduction of affinity against the wild-type NlB region (1002-1038) [2]: ≥ 5 fold

Molecule: RRAAHESKMIEKHGGYKFNAPVVPSTYNFGNPAPGMN (domain or fragment, X. laevis, UniProt O42480 1002-1038, looked up) [GST-tagged Imp7 (1002-1038) fragment F1028Y]
- fold reduction of affinity against the wild-type NlB region (1002-1038) [2]: ≥ 5 fold

Molecule: RRAAHESKMIEKHGGYKFNAPVVPSTFNYGNPAPGMN (domain or fragment, X. laevis, UniProt O42480 1002-1038, looked up) [GST-tagged Imp7 (1002-1038) fragment F1030Y]
- fold reduction of affinity against the wild-type NlB region (1002-1038) [2]: ≥ 5 fold

Molecule: RRAAHESKMIEKHGGYKFNAPVVPSTFSFGNPAPGMN (domain or fragment, X. laevis, UniProt O42480 1002-1038, looked up) [GST-tagged Imp7 (1002-1038) fragment N1029S]
- fold increase of affinity against the wild-type NlB region (1002-1038) [2]: ~2 fold

Molecule: RRAAHESKMIEKHGGYKFNAPVVPSTFNFGGPAPGMN (domain or fragment, X. laevis, UniProt O42480 1002-1038, looked up) [GST-tagged Imp7 (1002-1038) fragment N1032G]
- fold increase of affinity against the wild-type NlB region (1002-1038) [2]: ~2 fold

Molecule: GYKFNAPVVPSTFNF (domain or fragment, X. laevis, UniProt O42480 1016-1030, looked up) [GST-NlB 1016-1030]
- fold reduction of affinity against the NlB region (1002-1038) [2]: ~4 fold

B1: Histone H1.11L from chicken (natural protein, chicken (Gallus gallus), UniProt P08287 1-225, looked up)
chain: MSETAPAPAAEAAPAAAPAPAKAAAKKPKKAAGGAKARKPAGPSVTELITKAVSASKERKGLSLAALKKALAAGGYDVEKNNSRIKLGLKSLVSKGTLVQTKGTGASGSFRLSKKPGEVKEKAPKKKASAAKPKKPAAKKPAAAAKKPKKAVAVKKSPKKAKKPAASATKKSAKSPKKVTKAVKPKKAVAAKSPAKAKAVKPKAAKPKAAKPKAAKAKKAAAKKK
- binding result [3]: binds
